Here are results for nine molecules from US20250051426A1 (IGALPHAN, published 2025).

Substitutions are numbered along the chain they refer to.

For test [1], the target named is T1, E. coli wild-type SHMT (GST fusion protein) (E. coli, UniProt P0A825 1-417).
T1 construct: Overexpressed in E. coli as a GST fusion, purified and immobilized on the ELISA plate at 2 ug/ml; not shown: Glutathione-S-transferase (GST) fusion partner
T1 sequence: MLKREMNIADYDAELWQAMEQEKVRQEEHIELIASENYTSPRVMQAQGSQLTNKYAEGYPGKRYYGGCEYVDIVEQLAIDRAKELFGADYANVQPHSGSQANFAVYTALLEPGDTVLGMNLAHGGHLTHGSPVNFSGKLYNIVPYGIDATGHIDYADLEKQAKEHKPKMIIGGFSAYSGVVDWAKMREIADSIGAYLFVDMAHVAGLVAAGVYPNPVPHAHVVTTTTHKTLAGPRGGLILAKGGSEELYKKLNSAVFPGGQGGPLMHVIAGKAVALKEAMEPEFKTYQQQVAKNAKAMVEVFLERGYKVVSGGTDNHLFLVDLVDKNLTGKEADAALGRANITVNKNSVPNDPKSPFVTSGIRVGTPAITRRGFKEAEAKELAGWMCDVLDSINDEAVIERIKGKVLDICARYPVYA
As to the kind of experiment: ELISA on immobilized GST fusion protein.

Another test addresses T2, E. coli iPGM (E. coli, UniProt P37689 1-514, limits assumed).
T2 sequence (looked up): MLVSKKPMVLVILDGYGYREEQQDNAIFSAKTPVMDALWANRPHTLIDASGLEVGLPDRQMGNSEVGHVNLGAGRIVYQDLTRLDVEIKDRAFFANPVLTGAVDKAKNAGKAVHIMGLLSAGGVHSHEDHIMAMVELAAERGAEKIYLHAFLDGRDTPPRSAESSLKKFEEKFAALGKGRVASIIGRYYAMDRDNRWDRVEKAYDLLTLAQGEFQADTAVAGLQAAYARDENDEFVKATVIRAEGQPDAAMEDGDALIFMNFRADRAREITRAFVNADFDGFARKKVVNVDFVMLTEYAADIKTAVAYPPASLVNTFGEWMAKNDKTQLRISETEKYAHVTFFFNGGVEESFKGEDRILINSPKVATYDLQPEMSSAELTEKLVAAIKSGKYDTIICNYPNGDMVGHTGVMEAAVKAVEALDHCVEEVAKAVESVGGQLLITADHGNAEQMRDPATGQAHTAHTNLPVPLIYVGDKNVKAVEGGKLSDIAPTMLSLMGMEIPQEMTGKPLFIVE
As to the kind of experiment: Western blot. (In western blotting, separated proteins are transferred to a membrane and probed.)

In another test the target is T3, E. coli SHMT (25-45) (E. coli).
T3 construct: Expressed as a GST fusion; GST was cleaved off and removed before crystallization
T3 peptide: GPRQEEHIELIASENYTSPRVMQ
As to the kind of experiment: X-ray crystal structure of the Fab-peptide complex.

The target of test [2] is T4, C. difficile iPGM (486-509) (C. difficile).
T4 construct: Expressed as a GST fusion; GST was cleaved off and removed before crystallization
T4 peptide: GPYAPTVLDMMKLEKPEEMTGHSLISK
As to the kind of experiment: X-ray crystal structure of the Fab-peptide complex.

B1: RS_H007_L001 (antibody, V domains shown)
VH: EVQLQQSGSELVKSGASVKLSCTVSGFNFTNYYIHWVRQRTEQGLEWIGRIDPENNQTTYAPKFQGKATMTADTSSNTAYLQLTSLTSEDTAVYYCARSTVLDYWGHGTTLTVSS
VL: DVLMTQSPASLSVSLGDRATISCRASQSIVHTNGNTYLEWYLQKPGQSPKLLIYKVSNRFSGVPDRFSGSGSGTDFILKISRVEAEDLGVYYCFQGSHVPPTFGGGTKLEVK
notes: Mainly dimers
As for B1, the binding result in test [1] is recorded as “binds”.

B2: W27G2 antibody (antibody, V domains shown)
VH: B1 VH with N31D, N56D, Q57E
VL: DVLMTQTPLSLPVSLGDQASISCRASQSIVHTNGNTYLEWYLQKPGQSPKLLIYKVSNRFSGVPDRFSGSGSGTDFILKISRVEAEDLGVYYCFQGSHVPPTFGGGTKLEVKR
notes: Mouse IgA produced by a hybridoma; W27G2CHT is the crude hydroxyapatite-purified preparation; W27G2GF is the multimer fraction after gel filtration; also called hybridoma-derived W27G2 antibody; W27G2CHT
B2: the binding result in test [1] is “binds”.

B3: W27 antibody (antibody, V domains shown)
VH: B1 VH with N31D, N56D, Q57E
VL: B1 VL with S7T, A9L, S12P, R18Q, T20S
notes: IgA; also called W27IgA antibody
B3: in the test with E. coli iPGM, the binding result is “no binding”.

B4: RS_H000_L000GR Fab (Fab, V domains shown)
VH: B1 VH with N31D, N56D, Q57E
VL: B1 VL with S7T, A9L, S12P, R18Q, T20S
notes: Fab made by papain digestion of the W27 recombinant IgG expressed in CHO cells; also called IgG W27 Fab
In the case of B4, the binding result (with E. coli SHMT (25-45); in test [2]) was “binds” throughout.

B5: RS_H007_L002 (antibody, V domains shown)
VH: B1 VH
VL: B1 VL with A19V
notes: Mainly dimers
Take B5: in test [1], the binding result was “binds”.

B6: RS_H000_L001 (antibody, V domains shown)
VH: B1 VH with N31D, N56D, Q57E
VL: B1 VL
notes: Mainly dimers by non-reduced SDS-PAGE
Regarding B6, in test [1], the binding result is on record as “binds”.

B7: RS_H000_L005 (antibody, V domains shown)
VH: B1 VH with N31D, N56D, Q57E
VL: B1 VL with A25S
notes: Mainly dimers
As for B7, the binding result in test [1] is reported as “binds”.

B8: RS_H007_L005 (antibody, V domains shown)
VH: B1 VH
VL: B1 VL with A25S
notes: Mainly dimers
Consider B8, for which the binding result in test [1] was “binds”.

B9: RS_H007_L004 (antibody, V domains shown)
VH: B1 VH
VL: B1 VL with L11M, A25S
notes: Mainly dimers
Consider B9, for which, in test [1], the binding result is reported as “binds”.
